Assay results: patent US20200270588A1, “GLUCOSYL TRANSFERASE POLYPEPTIDES AND METHODS OF USE” (Syngenta Participations AG, priority 2017, published 2020)

Key:
[1] = UDP luminescence plate assay of E. coli extracts, mutants of SEQ ID No: 1, 2 mM metribuzin; assay type: biochemical, Zea mays; settings: for RATIO of the metribuzin signal to the DMSO signal: 2 mM metribuzin vs DMSO control, same mutant; for SIGNAL: metribuzin signal of mutant divided by the signal of w/t bx9 / luminescence signal observed with 2 mM metribuzin: 2 mM metribuzin; for SIGNAL: metribuzin signal of mutant divided by the signal of w/t bx9: relative to bx9 w/t; for luminescence signal in the DMSO control: mutants of SEQ ID No: 1, DMSO in place of metribuzin (background UDP-glucose hydrolysis); for luminescence signal observed with 2 mM metribuzin: mutants of SEQ ID No: 1 in E. coli extracts, UDP luminescence
Outline: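 Extracts of E. coli BL21 DE3 expressing C-terminally His-tagged SEQ ID NO:1 variants incubated with 2 mM metribuzin; UDP formed read by UDP-Glo luminescence against a UDP standard curve, with optional 95 C stop. Mutants ranked by metribuzin/DMSO signal ratio and signal increase over wild-type bx9.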

[2] = UDP luminescence plate assay of E. coli extracts, saturation mutants of SEQ ID NO: 1, herbicide V; assay type: biochemical, Zea mays; settings: improvement factor relative to w/t bx9 = 1.0, rounded to nearest 0.5; extract activity basis; compound V

B1: I363M: bx9 SEQ ID NO:1 mutant (protein)
chain: MASSRTGAGAGGRVVVFPFPFQGHFNPVMRLARALHARGLAITVFHSGALDPADYPADYRFVPVTVEADPKLLASEDIAAIVTTLNASCDAPFRARLSALLAAEGRDSVRCVFTDVSWNAVLTASSDLGVPALGMMTASAASLRDYMAYRTLIDKGYLPVKEERKEDPVPELPPYLVKDLLRVDTSDLEEFAELLARTVTAARRASGLIFNTFPLIETDTLAEIHKALSVPVFAVAPLNKLVPTATASLHGVVQADRGCLQWLDTQQPGSVLYVSFGSMAAMDPHEFVELAWGLADSKRPFVWVVRPNLIRGFESGALPDGVEDEVRGRGIVVAWAPQEEVLAHPAVGGFLTHNGWNSTVEAMSEGVPMVCCPRHGDQFGNMRYVCDVWKVGTELVGEQLERGQVKAAIDRLFGTKEGEEIKERMKEFKIAAAKGIGIGVDVDETASPRTDLTDLVDLIKSF
modifications: Zea mays
RATIO of the metribuzin signal to the DMSO signal [1]: 0.90 | SIGNAL: metribuzin signal of mutant divided by the signal of w/t bx9 [1]: 1.67 | luminescence signal in the DMSO control [1]: 5.22E+05 | luminescence signal observed with 2 mM metribuzin [1]: 4.68E+05 | Most Preferred amino acid substitutions and (IF) based on RLU/min/ul [2]: L,M(3.0)

B2: G376L: bx9 SEQ ID NO:1 mutant (protein)
chain: MASSRTGAGAGGRVVVFPFPFQGHFNPVMRLARALHARGLAITVFHSGALDPADYPADYRFVPVTVEADPKLLASEDIAAIVTTLNASCDAPFRARLSALLAAEGRDSVRCVFTDVSWNAVLTASSDLGVPALGMMTASAASLRDYMAYRTLIDKGYLPVKEERKEDPVPELPPYLVKDLLRVDTSDLEEFAELLARTVTAARRASGLIFNTFPLIETDTLAEIHKALSVPVFAVAPLNKLVPTATASLHGVVQADRGCLQWLDTQQPGSVLYVSFGSMAAMDPHEFVELAWGLADSKRPFVWVVRPNLIRGFESGALPDGVEDEVRGRGIVVAWAPQEEVLAHPAVGGFLTHNGWNSTVEAISEGVPMVCCPRHLDQFGNMRYVCDVWKVGTELVGEQLERGQVKAAIDRLFGTKEGEEIKERMKEFKIAAAKGIGIGVDVDETASPRTDLTDLVDLIKSF
modifications: Zea mays
RATIO of the metribuzin signal to the DMSO signal [1]: 0.99 | SIGNAL: metribuzin signal of mutant divided by the signal of w/t bx9 [1]: 1.27 | luminescence signal in the DMSO control [1]: 3.59E+05 | luminescence signal observed with 2 mM metribuzin [1]: 3.56E+05 | Most Preferred amino acid substitutions and (IF) based on RLU/min/ul [2]: L(2.0)

B3: G376M: bx9 SEQ ID NO:1 mutant (protein)
chain: MASSRTGAGAGGRVVVFPFPFQGHFNPVMRLARALHARGLAITVFHSGALDPADYPADYRFVPVTVEADPKLLASEDIAAIVTTLNASCDAPFRARLSALLAAEGRDSVRCVFTDVSWNAVLTASSDLGVPALGMMTASAASLRDYMAYRTLIDKGYLPVKEERKEDPVPELPPYLVKDLLRVDTSDLEEFAELLARTVTAARRASGLIFNTFPLIETDTLAEIHKALSVPVFAVAPLNKLVPTATASLHGVVQADRGCLQWLDTQQPGSVLYVSFGSMAAMDPHEFVELAWGLADSKRPFVWVVRPNLIRGFESGALPDGVEDEVRGRGIVVAWAPQEEVLAHPAVGGFLTHNGWNSTVEAISEGVPMVCCPRHMDQFGNMRYVCDVWKVGTELVGEQLERGQVKAAIDRLFGTKEGEEIKERMKEFKIAAAKGIGIGVDVDETASPRTDLTDLVDLIKSF
modifications: Zea mays
RATIO of the metribuzin signal to the DMSO signal [1]: 1.13 | SIGNAL: metribuzin signal of mutant divided by the signal of w/t bx9 [1]: 1.13 | luminescence signal in the DMSO control [1]: 2.80E+05 | luminescence signal observed with 2 mM metribuzin [1]: 3.15E+05 | Preferred amino acid substitutions and (IF) based on RLU/min/ul [2]: C,M(1.0)
